# Literature values as cited in article PMC7248566.
# Target: Fibrinogen beta (Fgβ) (Homo sapiens) (UniProt P02675)
substance,measurement,value
SdrG (from UniProt Q9KI13),Kd,0.35 µM
